Reference: US9273095B2, “Antibiotic peptide and preparation method therefor and application therefor” (priority 2011, dated 2016)

Legend:
[1] = Circular dichroism (CD) spectroscopy, helical structure; type: physicochemical; conditions: 50% trifluoroethanol (TFE), 5° C.
[2] = RP-HPLC temperature profiling: hydrophobicity and self-association; type: physicochemical
Protocol: Peptides are analyzed on an Agilent 1200 series liquid chromatograph (Little Falls, Del.). Runs are performed on a Zorbax 300 SB-C8 column (150×4.6 mm I.D.; 5 μm particle size, 300 Å pore size) from Agilent Technologies using linear AB gradient (1% acetonitrile/min) and a flow rate of 1 ml/min, where solvent A is 0.05% aqueous TFA, pH 2 and solvent B is 0.05% TFA in acetonitrile.
We further use temperature profiling during RP-HPLC to determine the self-association ability of various analogs of PL-13 (SEQ ID NO: 1) which would occur through interaction of the non-polar faces of these amphipathic peptides α-helices. We use 50% TFE aqueous acetonitrile and hydrophobic conditions in the reversed-phase column (hydrophobic stationary phase and the hydrophobic organic solvent in the mobile phase) since the hydrophobic environment of a reversed-phase column also could induce α-helical structure. Since its introduction, the technique of RP-HPLC temperature profiling has been applied on several types of molecules, including cyclic β-sheet peptides, monomeric α-helices and α-helices that dimerize, as well as α-helices that dimerize to form coiled-coils. Although peptides are eluted from a reversed-phase column mainly by an adsorption/desorption mechanism, even a peptide strongly bound to a hydrophobic stationary phase will partition between the matrix and the mobile phase when the acetonitrile content becomes high enough during gradient elution. In summary, the mechanism is based on four assumptions: (i) at low temperature, just as an amphipathic α-helical peptide is able to dimerize in aqueous solution (through its hydrophobic, non-polar face), it will dimerize in solution during partitioning in reversed-phase chromatography; (ii) at higher temperatures, the monomer-dimer equilibrium favors the monomer as the dimer is disrupted; (iii) at sufficiently high temperatures, only monomer is present in solution; and (iv) peptide is always bound in its monomeric helical form to the hydrophobic stationary phase, i.e., the dimer can only be present in solution and disruption of the dimer is required for rebinding to the RP-HPLC matrix.
([θ]222=−3,950). Since peptide C is a monomeric random coil peptide in both aqueous and hydrophobic media, its retention behavior over the temperature range 5-80° C. represents only general temperature effects on peptide retention behavior, i.e., a linear decrease in peptide retention time with increasing temperature due to greater solute diffusivity and enhanced mass transfer between the stationary and mobile phases at higher temperatures. Thus, after normalization to the retention times of peptide C, the retention behavior of the peptides only represents peptide self-association ability. Note that the higher the PA value, the greater the self-association ability. The order of peptide self-association ability of the three pairs of peptide enantiomers is identical to the order of peptide hydrophobicity. Apart from the decrease in retention time due to the general temperature effects noted above, destruction of the α-helix will also occur with increasing temperature, resulting in reduced retention times as the peptides become increasingly random coils.
The retention time data for the peptides is shown in Table 6 which records retention times at 5° C., the maximal retention times and retention times at 80° C. during the temperature profiling. Temperatures of 5-80° C. are the lower and upper temperature limits of temperature profiling in RP-HPLC, representing polymerization of the peptides at 5° C. and the monomerization of peptides at 80° C. due to denaturation of peptides by high temperature and dissociation of the polymers. The maximal retention times represent the threshold points at which peptides totally transform from polymeric to monomeric form. […]

## Ac-ELEKGGLEGEKGGKELEK-amide (Ac-ELEKGGLEGEKGGKELEK-NH2) [reference compound]
[1]
  [θ]222: −3,950
[2]; RP-HPLC temperature profiling, 5° C.
  tR(min) 5° C.: 22.56 min
[2]; RP-HPLC temperature profiling, 80° C.
  tR(min) 80° C.: 19.91 min
[2]; maximal retention time during temperature profiling 5-80° C.
  tR(min) Max: 22.56 min
